Publication PMC11480844 (2024)

B1: H2-Kb / Ed31 (parent complex)
chain 1: GQQVQQSPASLVLQEGENAELQCNFSTSLNSMQWFYQRPGGSLVSLFYNPSGTKHSGRLTSTTVIKERRSSLHISSSQTTDSGTYLCALEGNYAQGLTFGLGTRVSVFP
chain 2: ETAVFQTPNYHVTQVGNEVSFNCKQTLGHDTMYWYKQDSKKLLKIMFSYNNKQLIVNETVPRRFSPQSSDKAHLNLRIKSVEPEDSAVYLCASRSAGEQYFGPGTRLTVL
chain 3: not shown
chain 4: IQKTPQIQVYSRHPPENGKPNILNCYVTQFHPPHIEIQMLKNGKKIPKVEMSDMSFSKDWSFYILAHTEFTPTETDTYACRVKHDSMAEPKTVYWDRDM
chain 5: SIINFEKL

Variants of: B1
Assay: % of reporter cells activated (NFAT-GFP), raw; further: test concentration or dose not given here

| ratio to parent | Variant |
| --- | --- |
| 1.07 | chain 5 I2V |
| 1.09 | chain 5 I2T |
| 1.11 | chain 5 I2E |
| 0.795 | chain 5 I2F |
| 1.07 | chain 5 I2M |
| 0.757 | chain 5 S1K |
| 0.532 | chain 5 S1R |
| 0.803 | chain 5 S1A |
| 0.459 | chain 5 S1F |
| 0.46 | chain 5 S1L |
| 0.44 | chain 5 S1C |
| 0.658 | chain 5 S1P |
| 0.49 | chain 5 F5Q |
| 0.496 | chain 5 F5I |
| 1.11 | chain 5 F5Y |
| 0.635 | chain 5 F5R |
| 0.866 | chain 5 F5A |
| 0.536 | chain 5 F5D |
| 0.898 | chain 5 L8A |
| 0.876 | chain 5 L8Q |
| 0.968 | chain 5 L8I |
| 0.69 | chain 5 L8N |
| 0.891 | chain 5 L8F |
| 0.766 | chain 5 L8W |
| 0.791 | chain 5 L8R |

| ratio to parent | Variant |
| --- | --- |
| 0.762 | chain 5 L8S |
| 0.922 | chain 5 L8Y |
| 0.802 | chain 5 L8H |
| 0.862 | chain 5 L8T |
| 0.00208 | chain 5 E6T |
| 0.435 | chain 5 E6G |
| 0.0101 | chain 5 E6P |
| 0.458 | chain 5 E6D |
| 0.00379 | chain 5 E6V |
| 0.174 | chain 5 E6H |
| 0.00329 | chain 5 E6S |
| 0.00233 | chain 5 E6W |
| 0.0864 | chain 5 E6Y |
| 0.0115 | chain 5 E6F |
| 0.0136 | chain 5 E6N |
| 0.484 | chain 5 N4I |
| 0.0188 | chain 5 N4E |
| 0.0359 | chain 5 N4K |
| 0.00781 | chain 5 N4S |
| 0.0503 | chain 5 N4A |
| 0.0223 | chain 5 N4P |
| 0.198 | chain 5 N4L |
| 0.0703 | chain 5 N4R |
| 0.132 | chain 5 N4V |
| 0.031 | chain 5 N4C |

| ratio to parent | Variant |
| --- | --- |
| 0.156 | chain 5 N4T |
| 0.583 | chain 5 N4Q |
| 0.083 | chain 5 N4G |
| 0.102 | chain 5 K7T |
| 0.141 | chain 5 K7L |
| 0.0347 | chain 5 K7F |
| 0.298 | chain 5 K7P |
| 0.247 | chain 5 K7V |
| 0.167 | chain 5 K7Y |
| 0.185 | chain 5 K7N |
| 0.0194 | chain 5 K7E |
| 0.698 | chain 5 K7R |
| 0.167 | chain 5 K7D |
| 0.542 | chain 5 K7W |
| 0.614 | chain 5 K7S |
| 0.183 | chain 5 I3H |
| 0.563 | chain 5 I3M |
| 1.02 | chain 5 I3L |
| 0.0501 | chain 5 I3R |
| 0.309 | chain 5 I3G |
| 0.523 | chain 5 I3A |
| 0.548 | chain 5 I3T |
| 0.272 | chain 5 I3Q |
| 0.499 | chain 5 I3E |
| 0.894 | chain 5 I3P |
